The values that follow come from publication PMC9210550.

The target in data set [1] is T1, ZCCHC8 core (NEXT subunit);RBM7 core (NEXT subunit);MTR4 (human;human;human, UniProt Q6NZY4;Q9Y580;P42285 1-415+508-707;6-86;1-1042, internal_change||). The data set is described as follows: cryo-EM.
For data set [2], the target named is T1, ZCCHC8 core (NEXT subunit);RBM7 core …. The data set is described as follows: cryo-EM. The source holds these as a separate data set.
In data set [3] the target is ZCCHC8 core delta HD;RBM7 core (NEXT subunit);MTR4 (human;human;human, UniProt Q6NZY4;Q9Y580;P42285 176-415+508-707;6-86;1-1042, internal_change||). The data set is described as follows: EMSA. A general note: A gel shift assay detects complexes by their altered migration in electrophoresis.
Data set [4] deals with T1, ZCCHC8 core (NEXT subunit);RBM7 core …. The data set is described as follows: EMSA.
The target of data set [5] is T2, ZCCHC8 core (NEXT subunit);RBM7 core FAFA;MTR4 (human;human;human, UniProt Q6NZY4;Q9Y580;P42285 1-415+508-707;6-86;1-1042, internal_change|F13A;F52A|). The data set is described as follows: EMSA.
Data set [6] has as its target T2, ZCCHC8 core (NEXT subunit);RBM7 core …. The data set is described as follows: EMSA. This is another data set of the same source.
The target in data set [7] is ZCCHC8 core delta ZK;RBM7 core (NEXT subunit);MTR4 (human;human;human, UniProt Q6NZY4;Q9Y580;P42285 1-226+245-415+508-707;6-86;1-1042, internal_change||). The data set is described as follows: EMSA.
In data set [8] the target is T1, ZCCHC8 core (NEXT subunit);RBM7 core …. The data set is described as follows: EMSA. The source holds these as a separate data set.

For orientation: Kd means a measure of binding affinity in units of concentration.

Read-outs that look alike come from different tables or passages of the source.

Take ACAUGAGGAUCACCCAUGUAAUCUCUUUCAAAAAAUACAAAAAAAA (structured_RNA, 2'-pyrene modified U at position 36) [cryo-EM substrate 1]: the binding result in data set [1] is given as “binds”.

B1: cryo-EM substrate 2 (dsRNA)
RNA 1: GGCGCGCGCCAAAAAUUUUUAAAAAAAAAA
RNA 2: GGCGCGCGCCAAAAAUUUUUAAAAAAAAAA
With B1, the binding result in data set [2] is given as “binds”.

B2: 3' A5U5A10-tailed RNA duplex (dsRNA)
RNA 1: AGUGCGCUGUAUCUUCAAGGCCACU
RNA 2: AGUGGCCUUGAAGAUACAGCGCACUAAAAAUUUUUAAAAAAAAAA
For the molecule B2, the binding signal in data set [3] is ~2 fold weaker than NEXT; in data set [5] it was ~3 fold weaker than NEXT. The molecule also displayed a Kd in data set [4] of 42 nM.

B3: 3' A20-tailed RNA duplex (dsRNA)
RNA 1: AGUGCGCUGUAUCUUCAAGGCCACU
RNA 2: AGUGGCCUUGAAGAUACAGCGCACUAAAAAAAAAAAAAAAAAAAA
As for B3, the binding signal in data set [6] was ~2 fold weaker than NEXT on A20 tail; in data set [7], ~4 fold tighter than NEXT on A20 tail; in data set [8] it was ~10 fold weaker than NEXT on A5U5A10 tail.
